Source: patent publication US11906524B2, “Urea biosensors and uses thereof” (Duke University, priority 2015, dated 2024)
Marks after values point to notes of the source that are not given here.

Columns and labels:
[1] = Thermal stability of purified UBP candidates (SYPRO Orange thermal melt, Roche LightCycler); type: physicochemical; details: apo-protein; SYPRO Orange monitors unfolded protein
Protocol: The urea-binding properties of these leads were determined experimentally (Table 4). These experiments comprise four successive steps: • 1. Synthetic gene construction. […] Heterologous protein expression of the homologues in E. coli. […] Verification of urea binding.
Analysis of urea-binding properties using thermal melts.

[2] = Temperature- and urea-dependent fluorescence landscapes of fluorescent conjugates (Roche LightCycler); type: binding; set-up: key: y, yes; n, no; details: Acrylodan conjugate; fluorescent response to urea
How it was run: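 Acrylodan or Badan was attached to single-cysteine csUBP7 mutants and fluorescence was recorded over 0–4.8 M urea in 20 mM KCl, 20 mM MOPS (pH 7.4), with temperature stepped by 1K. Urea Kd came from ratiometric single-site fits, and Kd values across temperatures were fit to the Gibbs-Helmholtz equation.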

[3] = Urea titration of emission intensity spectra (Nanodrop3300) with ratiometric analysis, singly labeled conjugates; type: binding; set-up: key: m, monochromatic; d, dichromatic (i.e. spectral shape changes); 0, no change; details: urea response
From the text: Determination of emission intensity spectra.
Ratiometric analysis of urea binding. […] 2
For a single urea-binding site, the fractional saturation is given by
[formula] where [L] is the ligand (urea) concentration and Kd the dissociation constant, ^trueKd for ytrue.
[formula] where ^appIλ2 and ^satIλ2 are the emission intensities of the monochromatic signal at wavelength λ2 of the ligand-free and ligand-bound protein, respectively.

Molecule | Thermostability ^apoTm [1] | also measured
csUBP7: urea-binding protein from Caldicellulosiruptor saccharolyticus, C89A, SEQ ID NO: 18 (protein, csUBP7 (with signal peptide replaced with M and a GGSHHHHHH at C-terminus, and also comprising a C89A substitution)) MSSSESEKEKSEETIKVGILHSLSGTMSISEVSLKDAELMAIEEINNNGGVLGKKLEPIVEDGASDWPTFAEKAKKLLQKDKVAVIFGAWTSASRKAVLPVVEENNGLLFYPVQYEGLESSPNIFYMGAAPNQQIVPAVKWLFDNGKKRFYLLGSDYVFPRTANKIIKAYLKYLGGVVVGEEYTPLGHTDYSSVINKIKAAKPDVVFNTLNGDSNVAFFKQLKDAGIDANTLPVMSVSIAEEEIKGIGPEYLKGHLVTWNYFQSVDTPENKEFVEKYKKKYGEDRVTDDPIEAAYIGVYLWAKAVEKAGSTDVDKVREAAKGIEFNAPEGPVKIDGDNQHLYKTVRIGEILENGQIRELWKTNKPVKPDPYLKGYEWAQGLSEQGGSHHHHHH | 67 °C | 
mhUBP2: urea-binding protein from Marinobacter hydrocarbanoclasticus, SEQ ID NO: 13 (protein, mhUBP2 (with signal peptide replaced with M and a GGSHHHHHH at C-terminus, and also comprising C385A and C395A mutations)) MKVGILHSLSGTMAISETALKDTMLMLIEKQNEAGGVLGRQLEPVVVDPASNWPLFAEKARELLEKEKVDVIFGNWTSVSRKSVLPVVEELNGLLFYPVQYEGEESSENVFYTGAAPNQQAIPAVDYLMNDLGVERWVLAGTDYVYPRTTNKILETYLKDKGVAAGDIMINYTPFGHSDWQTIVSDIKKFGSAGKKTAVVSTINGDANVPFYRELGNQGISATDIPVVAFSVGEQELSGIDTAPLVGHLAAWNYFMSVDNDANYDFIDAWVAYKGDDAAVTNDPMEAHYIGFNMYVEAVKKAGTTDVDEVKDAIIGVSVPNLTGGYATMMPNHHITKPVLIGEIQDNGQFSVVWETPSTVAGDAWSDFLPGSKDLISDWRAPLRAGNFNVVTGKAGGGSADVASNGGSHHHHHH | <25^e ° C. | 
bsUBP3: urea-binding protein from Bacillus sp., SEQ ID NO: 14 (protein, bsUBP3 (with signal peptide replaced with M and a GGSHHHHHH at C-terminus)) MKVGILHSLSGTMAISEVSVHDAELIAIQEINQKGGVLGKKLEPVVEDGASDWPTYAEKMRKLLQQDKVAAVFGGWTSASRKAMLPVVEQNNGLLFYPVQYEGMETSPNIFYTGATTNQQIVPAVDWLLKNKGKKFFLIGSDYVFPRTANKIIKAQVKAGGGEIAGEEYTPLGHTNYSTLVSKIKEKQPDVIFNTLNGDSNVAFFKQLKDAGISADDMPVMSASVAEEEIRGIGPDVLKGHYAVWNYFQTTNTSENQTFVKNYKKMNGDSRVTSDPIEAGYNAVYLWAAAVEKAKSFDVDKVKKAADGISFKAPGGTVKIDGDTQHLYKTVRIGQITGDGQFKEVWNSGEPVKPDPYLKTYDWAKGLSKGGSHHHHHH | 51 °C | 
ctUBP6: urea-binding protein from Clostridium thermocellum, SEQ ID NO: 17 (protein, ctUBP6 (with signal peptide replaced with M and a GGSHHHHHH at C-terminus)) MVEEPVDNKPGTDTSAEDTIKVGILHSLSGTMAISEVSLKDAELMAIEEINQAGGLLGKKIEPVIEDGASDWPTFAEKAKKLLQNDKVATVFGCWTSASRKAVLPVFEENNGLLWYPVQYEGMESSPNIFYTGAAPNQQIVPAVEWLLENKGKRFFLLGSDYVFPRTANKIIKAQLSAIGGELIAEEYTPLGHTDYSTIVNKIKTAKPDVVFNTLNGDSNVAFFKQLKDAGITSEDITVCSVSVAEEEIRGIGAENIKGHLVSWNYYQTTDTPENKEFVEKYKSKYGSDRVTDDPIEAAYIAVHLWAEAVKKAGSFEVEKVKEAAKGLEFKAPEGLVKIEGENQHLWKPVRIGEVQEDGLIKEIWSTSEAVRPDPYLKTYDWAKGLSDGGSHHHHHH | 89 °C | 
ctUBP6 W95C: ctUBP6 95C cysteine mutant (SEQ ID NO: 49), tested as Acrylodan and Badan conjugates (conjugate, Acrylodan or Badan conjugate; ctUBP6_95C (95C substitution mutant with signal peptide replaced with M and a GGSHHHHHH at C-terminus)) MVEEPVDNKPGTDTSAEDTIKVGILHSLSGTMAISEVSLKDAELMAIEEINQAGGLLGKKIEPVIEDGASDWPTFAEKAKKLLQNDKVATVFGCCTSASRKAVLPVFEENNGLLWYPVQYEGMESSPNIFYTGAAPNQQIVPAVEWLLENKGKRFFLLGSDYVFPRTANKIIKAQLSAIGGELIAEEYTPLGHTDYSTIVNKIKTAKPDVVFNTLNGDSNVAFFKQLKDAGITSEDITVCSVSVAEEEIRGIGAENIKGHLVSWNYYQTTDTPENKEFVEKYKSKYGSDRVTDDPIEAAYIAVHLWAEAVKKAGSFEVEKVKEAAKGLEFKAPEGLVKIEGENQHLWKPVRIGEVQEDGLIKEIWSTSEAVRPDPYLKTYDWAKGLSDGGSHHHHHH |  | Response [2]: y; Shape ([3]; ctUBP6 Acrylodan conjugate): m; Shape ([3]; ctUBP6 Badan conjugate): m
gkUBP10: urea-binding protein from Geobacillus kaustophilus with FATT domain, SEQ ID NO: 20 (protein, gkUBP10 (with signal peptide replaced with M, which is followed by a FATT domain, followed by a sequence fragment for C3 protease, and with a GGSHHHHHH at C-terminus)) MAEESDNVDSADAEEDDSDVWWGGADTDYADGSEDKVVEVAEEEEVAEVEEEEADDDEDDEDGDEVEEEAEEPYEEATERTTSIATTTTTTTESVEEVLEVLFQGPASSAVDQAKNENKKDSSSASKEGDTVKVGILHSLSGTMAISEVSLRDAELMAIEEINASGGLLGKKIEPVVEDGASDWPTFAEKAKKLLQKDQVAAIFGGWTSASRKAMLPVVEQNNGLLWYPVQYEGMESSPNIFYTGATTNQQIVPAVSWLLKNRGKTFFLLGSDYVFPRTANKIIKAQLKAEGGQVVGEEYTPLGHTDYSTIISKIKQVKPAVVFNTLNGDSNVAFFKQLKDAGITPKDVTVMSVSIAEEEIRGIGPDVLAGHLAVWNYFQTTDTPENKAFVQKYKEKYGQDRVTDDPIEAAYTAVHLWAEAVKKAGSFDVDQVKKAAAGLEYKAPEGTVKIDGETQHLWKTVRIGEIQADGQFKELWNSGQPVKPDPYLKSYPWAKGLSEGGSHHHHHHHH | >100 °C | 
psUBP11: urea-binding protein from Paenibacillus sp. with FATT domain, SEQ ID NO: 21 (protein, psUBP11 (with signal peptide replaced with M, which is followed by a FATT domain, followed by a sequence fragment for C3 protease, and with a GGSHHHHHH at C-terminus)) MAEESDNVDSADAEEDDSDVWWGGADTDYADGSEDKVVEVAEEEEVAEVEEEEADDDEDDEDGDEVEEEAEEPYEEATERTTSIATTTTTTTESVEEVLEVLFQGPKETAPTAGAGNGSPPVEAAGDSIKVGILHSLSGTMAISEVSVKDAEMLAIEEINAAGGVLGKQIEPVIEDGASDWPTFAEKAGKLLQQDKVAAVFGGWTSASRKAMLPVFEQNHGLLFYPVQYEGLESSPNIFYTGATTNQQIVPSVSWLLENRGKKMFLLGSDYVFPRTANKIIKAQLTAEGGELAGEEYTPLGHTDFSTIIAKIKEAKPDIVYNTLNGDSNVAFFKQLKDAGTTSKDMTTLSVSVAEEEIRGIGADILEGHLAAWNYYQSTDTPENKAFVDKYKAKYGADRVTADPIEAGYTAVYLWKAAVEKAGTTDVDKVKEAAKGIEFAAPEGKVTIDGDNQHIHKTVRIGEVQADGQFKELWNSGEPVKPDPYLKTYDWAKGLSGEGGSHHHHHH | 80 °C | 
teUBP12: urea-binding protein from Thermosynechococcus elongatus with FATT domain, SEQ ID NO: 22 (protein, teUBP12 (with signal peptide replaced with M, which is followed by a FATT domain, followed by a sequence fragment for C3 protease, and with a GGSHHHHHH at C-terminus, as well as C185A, C216A, and C481A mutations)) MAEESDNVDSADAEEDDSDVWWGGADTDYADGSEDKVVEVAEEEEVAEVEEEEADDDEDDEDGDEVEEEAEEPYEEATERTTSIATTTTTTTESVEEVLEVLFQGPGGDTIKVGILHSLSGTMAISEKSVVDATQLAIEQINQAGGVLGKQIQPILEDGASDWPTFAEKATKLIDQDKVVAVFGAWTSASRKAVLPVFESKNHMLWYPVQYEGQEASKNIFYTGAAPNQQIEPAVDWLLQNKGKKFFLVGSDYVFPRTANTIIKAQLAAKGGETVGEDYLPLGNTEVTPIITRIRNALPDGGVIFNTLNGDSNVAFFKQLQGAGLTPDKYPTMSVSIAEEEVQAIGVEYLKGHYAAWNYFMTVDTPENKSFVEAFKAKFGQNRVTNDPMEAAYIAVHLWKQAVEQAGTADDLEKVRQAAIGQTFNAPEGPVKMFANHHISKTVRIGEVGEDGLFKIVYSTPQPVDPLPWNQFVAETKGFAADWTRTDVDNPGKFKAAGAGGSHHHHHH | 84 °C | 
